Data reported in publication PMC12607626, “Separation of Pseudomonas aeruginosa type IV pilus-dependent twitching motility and surface-sensing responses” (mBio, 2025).

Biological target: the molecule itself
Experiment: crystal structure; X-ray, 4.5 Å; sitting-drop vapour diffusion at 20 °C; 12.5 µM ATP in the final buffer, no nucleotide density; four protomers in the asymmetric unit, two nearly identical C3 hexamers identified from the crystal packing

B1: PilU (Pseudomonas aeruginosa type IVa pilus retraction ATPase paralog of PilT) (enzyme)
chain: MEFEKLLRLMVEKGGSDLFITAGVPPSMKVNGRVMPVTKTPLSPEQTRETVLGVMNEQQRRDFAENHECNFAISARGIGRFRVSAFYQRNLVGMVLRRIETNIPTLEELKLPEILKKLALTKRGLVIFVGATGTGKSTSLAAMIGYRNKNSTGHIISIEDPIEYIHQHQGCIVTQREVGLDTDSFEVALKNTLRQAPDVIMIGEVRSRETMDHAVAFAETGHLCLATLHANNANQALERIIHFFPADRHGQVWMDLSLNLKAIVAQQLVPTPDGKGRRAVIEVLLNTPLAADLIRKGEVHELKPLMKRSTEQGMQTFDQALYQLYTQGEITYEDALAHADSANDLRLMIKLGSESDADHLSSLTQGLSLEITDDDPAGRRFR
notes: PilU, P. aeruginosa; the pilU gene was amplified by PCR and cloned into pET28a; the 30 C-terminal residues were not resolved in the crystal; also called PilU hexamer; source: E. coli BL21 (DE3), pET28a, purified (HiTrap Chelating HP, size-exclusion chromatography)
stoichiometry N: 6
